Assay results as given in publication doi:10.1101/2024.10.30.620795 (2024).

T1: A*24/QYI peptide on A*24/QYI (human)
T1 peptide: QYIKWPWYI

T2: A*01/LTD peptide on A*01/LTD (human)
T2 peptide: LTDEMIAQY

T3: A*02/YLQ peptide on A*02/YLQ (human)
T3 peptide: YLQPRTFLL

B1: 96 (TCR)
alpha TRAV38-1 TRAJ57 CDR3: CAFSPGGSEKLVF
beta TRBV5-1 TRBJ2-7 CDR3: CASSLGRFLRGDWDYEQYF
B2: 84 (TCR)
alpha TRAV8-3 TRAJ24 CDR3: CAVGLTDSWGKLQF
beta TRBV5-8 TRBJ2-1 CDR3: CASSLAIRGIIDNEQFF
B3: 99 (TCR)
alpha TRAV5 TRAJ24 CDR3: CAERRGKLQF
beta TRBV15 TRBJ2-5 CDR3: CATSRGPGGSKAGETQYF
B4: 1690 (TCR)
alpha TRAV8-4 TRAJ10 CDR3: CAVSDLRVLTGGGNKLTF
beta TRBV7-9 TRBJ2-1 CDR3: CASSLALAGRNYNEQFF
B5: 10749 (TCR)
alpha TRAV12-1 TRAJ20 CDR3: CVVNKEDKLSF
beta TRBV20-1 TRBJ2-2 CDR3: CSARDLLAANTGELFF
B6: 5766 (TCR)
alpha TRAV12-1 TRAJ43 CDR3: CVVNMYDDMRF
beta TRBV5-1 TRBJ2-2 CDR3: CASIDSNTGELFF
B7: 7411 (TCR)
alpha TRAV12-1 TRAJ45 CDR3: CVVNRADGLTF
beta TRBV12-3 TRBJ2-2 CDR3: CASTDGNTGELFF
B8: 9825 (TCR)
alpha TRAV12-1 TRAJ43 CDR3: CVVNELDDMRF
beta TRBV5-1 TRBJ2-2 CDR3: CASAGPNTGELFF
B9: 6688 (TCR)
alpha TRAV12-1 TRAJ36 CDR3: CVVNKEDNLFF
beta TRBV9 TRBJ2-2 CDR3: CASSGGIETSGNTGELFF
B10: 3695 (TCR)
alpha TRAV12-1 TRAJ20 CDR3: CVVNWYDYKLSF
beta TRBV30 TRBJ2-2 CDR3: CAWINDQNTGELFF
B11: 6579 (TCR)
alpha TRAV12-1 TRAJ10 CDR3: CVVNSPEGGGNKLTF
beta TRBV7-2 TRBJ1-1 CDR3: CASSSLNSLEAFF
B12: 9973 (TCR)
alpha TRAV39 TRAJ54 CDR3: CAVDSSFQGAQKLVF
beta TRBV6-2 TRBJ2-7 CDR3: CASSLPDSYEQYF

Target: T1, A*24/QYI peptide on A*24/QYI
Assay: activation reporter or marker

**Q.** Does B1 bind?
**A.** no recognition

**Q.** Does B2 bind?
**A.** no recognition

Target: T2, A*01/LTD peptide on A*01/LTD
Assay: activation reporter or marker

**Q.** Does B3 bind?
**A.** recognises

**Q.** Does B4 bind?
**A.** no recognition

Target: T3, A*02/YLQ peptide on A*02/YLQ
Assay: activation reporter or marker

**Q.** Does B5 bind?
**A.** recognises

**Q.** Does B6 bind?
**A.** recognises

**Q.** Does B7 bind?
**A.** recognises

**Q.** Does B8 bind?
**A.** recognises

**Q.** Does B9 bind?
**A.** recognises

**Q.** Does B10 bind?
**A.** recognises

**Q.** Does B11 bind?
**A.** recognises

**Q.** Does B12 bind?
**A.** no recognition
